By EC50 is commonly meant the midpoint of the concentration-response curve. A low value points to higher potency in that assay. Broadly, the EC50 (read off the curve) is the midpoint of the concentration-response curve. A low value points to higher potency in that assay. A word on the Kd: it is a measure of binding affinity in units of concentration. Read a low Kd as a tighter complex. One may read the koff as the first-order rate constant of dissociation. Low readings indicate slow dissociation, high ones fast dissociation. A word on the kon: it is the second-order rate constant of association. A low value points to slower complex formation.

The source of these data is patent US20250382384A1 (BEONE MEDICINES I, published 2025).

For assay [1], the target named is T1, native human MUC1 on tumour cell lines (human, UniProt P15941 24-1255).
T1 construct: whole, on cells; also called native MUC1; ZR-75
T1 sequence (P15941 24-1255): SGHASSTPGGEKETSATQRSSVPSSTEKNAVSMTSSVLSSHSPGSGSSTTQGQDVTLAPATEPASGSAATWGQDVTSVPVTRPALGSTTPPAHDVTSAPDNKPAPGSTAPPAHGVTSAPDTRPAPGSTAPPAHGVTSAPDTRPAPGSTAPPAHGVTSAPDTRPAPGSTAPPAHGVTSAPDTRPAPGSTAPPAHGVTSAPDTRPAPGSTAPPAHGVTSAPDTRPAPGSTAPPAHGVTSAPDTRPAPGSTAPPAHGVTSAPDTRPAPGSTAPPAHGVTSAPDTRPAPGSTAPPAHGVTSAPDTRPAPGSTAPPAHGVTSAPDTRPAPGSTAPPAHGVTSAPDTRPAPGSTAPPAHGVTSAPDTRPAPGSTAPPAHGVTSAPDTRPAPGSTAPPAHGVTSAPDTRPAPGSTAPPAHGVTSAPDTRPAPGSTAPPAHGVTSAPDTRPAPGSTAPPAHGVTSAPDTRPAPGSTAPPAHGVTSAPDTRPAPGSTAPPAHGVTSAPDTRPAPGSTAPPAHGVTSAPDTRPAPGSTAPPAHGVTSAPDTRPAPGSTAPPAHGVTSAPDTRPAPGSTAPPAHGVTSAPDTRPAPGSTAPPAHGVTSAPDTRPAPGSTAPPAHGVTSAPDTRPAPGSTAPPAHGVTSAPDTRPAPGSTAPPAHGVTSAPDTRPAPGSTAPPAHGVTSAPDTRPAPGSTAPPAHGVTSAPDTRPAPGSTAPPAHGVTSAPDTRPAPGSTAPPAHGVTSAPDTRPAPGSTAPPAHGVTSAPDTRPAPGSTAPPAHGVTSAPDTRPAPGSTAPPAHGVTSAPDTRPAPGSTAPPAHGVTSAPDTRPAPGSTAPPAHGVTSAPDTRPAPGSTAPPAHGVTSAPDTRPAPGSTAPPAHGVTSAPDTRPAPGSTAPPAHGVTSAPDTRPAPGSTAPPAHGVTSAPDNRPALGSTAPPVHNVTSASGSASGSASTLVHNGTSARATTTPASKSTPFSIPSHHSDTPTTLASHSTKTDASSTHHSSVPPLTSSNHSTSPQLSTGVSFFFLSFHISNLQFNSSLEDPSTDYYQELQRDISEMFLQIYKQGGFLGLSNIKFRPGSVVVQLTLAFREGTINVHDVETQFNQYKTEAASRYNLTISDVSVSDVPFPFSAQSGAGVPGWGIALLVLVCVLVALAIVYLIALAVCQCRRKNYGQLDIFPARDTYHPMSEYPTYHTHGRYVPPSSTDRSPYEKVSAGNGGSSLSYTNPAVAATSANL
The assay is described as follows: FACS on live ZR-75 cells.

Assay [2] has as its target T2, full-length human MUC1 on stably transfected cells (human, UniProt P15941 24-1255).
T2 construct: also called HEK293/human MUC1; HEK293-hMUC1
The assay is described as follows: FACS (iQue3) on HEK293-hMUC1 cells.

For assay [3], the target named is T2, full-length human MUC1 on stably …. The assay is described as follows: FACS on HEK293-MUC1 cells, anti-His detection.
A further assay concerns the target T3, MUC1-SEA-mIgG2a (human; mouse, UniProt P15941 1036-1155).
T3 construct: also called huMUC1-SEA-mIgG2a; human MUC1-mFc; not shown: Fc domain of mouse IgG2a fused to the C-terminus of the SEA domain
T3 sequence: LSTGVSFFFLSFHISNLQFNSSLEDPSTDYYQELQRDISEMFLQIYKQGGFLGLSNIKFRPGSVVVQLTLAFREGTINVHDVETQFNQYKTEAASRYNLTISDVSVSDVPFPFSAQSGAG
The assay is described as follows: SPR (Biacore 8K, 25 C), MUC1-SEA-mIgG2a captured by anti-mouse Fc, scFv analyte.

T2 sequence (P15941 24-1255 limits assumed): as the sequence (P15941 24-1255) above

B1: huBG219P-Bz0 (antibody, IgG1, V domains shown)
VH: EVQLLESGGGLVQPGGSLRLSCAASGFTFNDYIMSWVRQAPGKGLEWVATVSSGGDNTYYPDSVKGRFTISRDNSKNTLYLQMNSLRAEDTAVYYCTRYGGLGAMDYWGQGTLVTVSS
VL: DIQMTQSPSSLSASVGERVTITCRASGNIHNYLTWYQQKPGKSPKLLVYNAKTLADGVPSRFSGSGSGPDYTLTISSLQPEDFATYYCQHFWSVPYTFGQGTKLEIK
notes: human wild-type IgG1 / kappa
Turning to B1, the EC50 in assay [1] amounted to 20.9 nM.

B2: huBG138P-Hz1 (antibody, V domains shown)
VH: QVQLVQSGAEVKKPGASVKVSCKASGYTFTTYTMHWVRQAPGQRLEWMGYINPGSDYTHYNQKFKDRVTITADTSASTAYMELSSLRSEDTAVYYCARQGNYAAYYFDYWGQGTLVTVSS
VL: DIQMTQSPSSLSASVGDRVTITCRASGNIHNFLVWYQQKPGKVPKLLIYNAKTLTSGVPSRFSGSGSGTDYTLTISSLQPEDVATYYCQNFWNVPFTFGQGTKLEIK
notes: humanized; constant regions not restated (IgG1/Ckappa vector used for the first round)
On to B2, for which the concentration for a half-maximal effect (EC50 (read off the curve)) in assay [2] is approximately 5 nM.

B3: huBG138P-Hz4 (antibody, V domains shown)
VH: QVQLVQSGAEVKKPGASVKVSCKASGYTFTTYTMHWVRQAPGQGLEWMGYINPGSDYTHYNQKFKDRVTITADKSASTAYMELSSLRSEDTAVYYCARQGNYAAYYFDYWGQGTLVTVSS
VL: DIQMTQSPSSLSASVGDRVTITCRASGNIHNFLVWYQQKPGKSPKLLIYNAKTLTSGVPSRFSGSGSGTQYTLTISSLQPEDVATYYCQNFWNVPFTFGQGTKLEIK
notes: humanized; constant regions not restated
B3: the “EC50 (read off the curve)” value in assay [2] was approximately 3 nM.

B4: huBG138P-Hz3 (antibody, V domains shown)
VH: QVQLVQSGAEVKKPGASVKVSCKASGYTFTTYTMHWVRQAPGQGLEWMGYINPGSDYTHYNQKFKDRVTITADKSASTAYMELSSLRSEDTAVYYCARQGNYAAYYFDYWGQGTLVTVSS
VL: DIQMTQSPSSLSASVGDRVTITCRASGNIHNFLVWYQQKPGKVPKLLIYNAKTLTSGVPSRFSGSGSGTDYTLTISSLQPEDVATYYCQNFWNVPFTFGQGTKLEIK
notes: as for B3
As to B4, in assay [2], the “EC50 (read off the curve)” value was approximately 5 nM.

B5: scFv3-20P (scFv)
scFv: QVQLVQSGAEVKKPGASVKVSCKASGYTFTNYWINWVRQAPGQGLEWMGEIDPSDAYTNNNQKFQGRVTMTVDTSTSTAYMELSSLRSEDTAVYYCARGRRTGFAYWGQGTLVTVSSGGGGSGGGGSGGGGSGGGGSDIQMTQSPSSLSASVGDRVTITCRASENIYSNLAWYQQKPGKAPKLLIYAATNLADGVPSRFSGSGSGTDYTLTISSLQPEDFATYYCQHFWGTPYTFGQGTKLEIKHHHHHH
notes: Humanized BG346P scFv; His tag from the stated format of the BG346P scFv constructs; also called BG346P-scFv3-20P
B5 had an EC50 in assay [3] of 16.1 nM. In the assay with MUC1-SEA-mIgG2a, this molecule returned a Kd of 67.1 nM, a koff of 0.0202 s⁻¹ and a kon of 301000 M⁻¹ s⁻¹.
